Reference: EP4335864A1

Target: recombinant murine IFN-α subtype A (murine)
Experiment: cell-based or functional assay

recombinant murine IFN-α subtype A (murine), sequence (P01573 24-190): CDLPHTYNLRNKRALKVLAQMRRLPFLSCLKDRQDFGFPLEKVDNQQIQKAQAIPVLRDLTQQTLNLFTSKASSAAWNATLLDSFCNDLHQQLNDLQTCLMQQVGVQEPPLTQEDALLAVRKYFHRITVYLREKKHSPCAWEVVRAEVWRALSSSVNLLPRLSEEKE

Substance: D3 immunoglobulin-like domain of vaccinia virus B18 protein, 6xHis tagged, expressed in bacteria (from UniProt P21077 254-353) (receptor)
- amount of protein for full IFN neutralization, against B18: 1
